System: engineered chimeric receptor SEQ ID NO: 33 and its mutants (human α7-nAChR ligand binding domain / human GlyRα1 ion pore domain) in Lenti-X 293T cells
Test: YFP fluorescence quenching anion reporter plate reader assay (percent quench, EC50)
Format: cell-based
Conditions: for YFP fluorescence quenching using CNL001 (percent quench): receptor named in row; for YFP fluorescence quenching using Varenicline, 3 nM var: ligand Varenicline 3 nM; for YFP fluorescence quenching using Varenicline, 30 nM var: ligand Varenicline 30 nM; for YFP fluorescence quenching using Varenicline, 300 nM var: ligand Varenicline 300 nM; for YFP fluorescence quenching using Varenicline, 500 nM var: ligand Varenicline 500 nM; for YFP fluorescence quenching using Varenicline, 1 uM var: ligand Varenicline 1 uM
Outline: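 Lenti-X 293T cells co-expressing an anion-quenchable YFP were transiently transfected with receptor DNA, then ligand was added in NaI-substituted buffer (pH 7.2) after 30 min at 37 °C. Fluorescence was read about 2 min; percent quench = mean of last 10 s over 15 s pre-ligand baseline.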

B1: CODA326: engineered receptor: L131A in SEQ ID NO: 33 (protein)
chain: MRCSPGGVWLALAASLLHVSLQGEFQRKLYKELVKNYNPLERPVANDSQPLTVYFSLSLLQIMDVDEKNQVLTTNIWLQMSWTDHYLQWNVSEYPGVKTVRFPDGQIWKPDILLYNSADERFDATFHTNVAVNSSGHCQYLPPGIFKSSCPMDLKNFPMDVQTCKLKFGSWSYGGWSLDLQMQEADISGYIPNGEWDLVGIPGKRSERFYECCKEPYPDVTFTVTMRRRMGYYLIQMYIPSLLIVILSWISFWINMDAAPARVGLGITTVLTMTTQSSGSRASLPKVSYVKAIDIWMAVCLLFVFSALLEYAAVNFVSRQHKELLRFRRKRRHHKSPMLNLFQEDEAGEGRFNFSAYGMGPACLQAKDGISVKGANNSNTTNPPPAPSKSPEEMRKLFIQRAKKIDKISRIGFPMAFLIFNMFYWIIYKIVRREDVHNQ
modifications: synthetic sequence of chimeric LGIC
- YFP fluorescence quenching using CNL001 (percent quench) (1 nM CNL001, first column so headed): 76.424%
- YFP fluorescence quenching using CNL001 (percent quench) (1 nM CNL001, second column so headed): 80.567%
- YFP fluorescence quenching using TC-5619/Bradanicline (percent quench) (3 nM brd (TC-5619/Bradanicline)): 72.24%
- YFP fluorescence quenching using CNL001 (percent quench) (10 nM CNL001, first column so headed): 80.284%
- YFP fluorescence quenching using CNL001 (percent quench) (10 nM CNL001, second column so headed): 81.232%
- YFP fluorescence quenching using TC-6683 (percent quench) (30 nM TC-6683): −16.28%
- YFP fluorescence quenching using TC-5619/Bradanicline (percent quench) (30 nM brd (TC-5619/Bradanicline)): 77.4%
- YFP fluorescence quenching using CNL001 (percent quench) (50 nM CNL001, first column so headed): 81.575%
- YFP fluorescence quenching using CNL001 (percent quench) (50 nM CNL001, second column so headed): 82.544%
- YFP fluorescence quenching using ABT-126 (percent quench) (50 nM abt (ABT-126)): −21.91%
- YFP fluorescence quenching using CNL001 (percent quench) (100 nM CNL001, first column so headed): 81%
- YFP fluorescence quenching using CNL001 (percent quench) (100 nM CNL001, second column so headed): 81.718%
- YFP fluorescence quenching (percent quench) (100 nM CNL002): 27.88%
- YFP fluorescence quenching using ABT-126 (percent quench) (100 nM abt (ABT-126)): −0.5%
- YFP fluorescence quenching using AZD-0328 (percent quench) (100 nM azd0328): 80.39%
- YFP fluorescence quenching using TC-6683 (percent quench) (300 nM TC-6683): −11.73%
- YFP fluorescence quenching using ABT-126 (percent quench) (300 nM abt (ABT-126)): 34.86%
- YFP fluorescence quenching using AZD-0328 (percent quench) (300 nM azd0328): 82.07%
- YFP fluorescence quenching using TC-5619/Bradanicline (percent quench) (300 nM brd (TC-5619/Bradanicline)): 78.02%
- YFP fluorescence quenching using CNL001 (percent quench) (1 uM CNL001, first column so headed): 82.334%
- YFP fluorescence quenching using CNL001 (percent quench) (1 uM CNL001, second column so headed): 81.539%
- YFP fluorescence quenching (percent quench) (1 uM CNL002): 73.79%
- YFP fluorescence quenching using ABT-126 (percent quench) (1 uM abt (ABT-126)): 56.66%
- YFP fluorescence quenching using TC-6683 (percent quench) (3 uM TC-6683): −2.38%
- YFP fluorescence quenching (percent quench) (10 uM ach (acetylcholine)): 7.43%
- YFP fluorescence quenching (percent quench) (30 uM CNL002): 75.89%
- YFP fluorescence quenching using TC-6683 (percent quench) (30 uM TC-6683): −9.77%
- YFP fluorescence quenching using AZD-0328 (percent quench) (30 uM azd0328): 82.23%
- YFP fluorescence quenching using TC-6683 (percent quench) (100 uM TC-6683): 0.97%
- YFP fluorescence quenching (percent quench) (100 uM ach (acetylcholine)): 73.57%
- YFP fluorescence quenching (percent quench) (1 mM ach (acetylcholine)): 71.8%
- YFP fluorescence quenching (percent quench) (3 mM ach (acetylcholine)): 74.49%
- YFP fluorescence quenching using Facinicline, 30 nM fac (ligand Facinicline 30 nM): 69.94
- YFP fluorescence quenching using Facinicline, 300 nM fac (ligand Facinicline 300 nM): 80.07
- YFP fluorescence quenching using Facinicline, 30 uM fac (ligand Facinicline 30 uM): 78.32
- YFP fluorescence quenching using TC-6987, 1 uM tc6987 (ligand TC-6987 1 uM): 73.37
- YFP fluorescence quenching using TC-6987, 10 uM tc6987 (ligand TC-6987 10 uM): 78.18
- YFP fluorescence quenching using TC-6987, 500 uM tc6987 (ligand TC-6987 500 uM): 75.42
- YFP fluorescence quenching using Varenicline, 3 nM var (first column): −5.939
- YFP fluorescence quenching using Varenicline, 3 nM var (second column): −2.294
- YFP fluorescence quenching using Varenicline, 30 nM var (first column): 68.663
- YFP fluorescence quenching using Varenicline, 30 nM var (second column): 70.718
- YFP fluorescence quenching using Varenicline, 300 nM var (first column): 79.88
- YFP fluorescence quenching using Varenicline, 300 nM var (second column): 79.742
- YFP fluorescence quenching using Varenicline, 500 nM var (first column): 79.311
- YFP fluorescence quenching using Varenicline, 500 nM var (second column): 80.029
- YFP fluorescence quenching using Varenicline, 1 uM var (first column): 80.952
- YFP fluorescence quenching using Varenicline, 1 uM var (second column): 79.329
